Drawing on PMC5740117, “Functional characterization and discovery of modulators of SbMATE, the agronomically important aluminium tolerance transporter from Sorghum bicolor” (Scientific Reports, 2017), this text covers Kd and Km for seven molecules.

For assay [1], the target named is T1, SbMATE (Sorghum bicolor, UniProt A7XZS5).
T1 sequence (A7XZS5 1-600): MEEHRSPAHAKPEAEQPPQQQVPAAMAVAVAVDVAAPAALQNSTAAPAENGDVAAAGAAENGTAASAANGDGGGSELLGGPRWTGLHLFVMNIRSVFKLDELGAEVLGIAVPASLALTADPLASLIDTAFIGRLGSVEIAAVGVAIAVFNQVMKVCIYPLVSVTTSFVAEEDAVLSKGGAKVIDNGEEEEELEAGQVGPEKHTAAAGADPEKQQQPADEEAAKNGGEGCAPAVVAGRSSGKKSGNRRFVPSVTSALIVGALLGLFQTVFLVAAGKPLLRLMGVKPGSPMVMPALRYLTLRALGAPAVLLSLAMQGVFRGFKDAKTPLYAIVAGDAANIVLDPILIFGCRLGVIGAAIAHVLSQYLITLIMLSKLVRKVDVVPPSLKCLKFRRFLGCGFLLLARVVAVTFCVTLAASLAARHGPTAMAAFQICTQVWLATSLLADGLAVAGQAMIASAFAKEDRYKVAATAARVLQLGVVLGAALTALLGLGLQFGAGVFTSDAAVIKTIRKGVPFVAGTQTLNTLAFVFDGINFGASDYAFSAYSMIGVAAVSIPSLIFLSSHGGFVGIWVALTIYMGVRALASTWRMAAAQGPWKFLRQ
Nature of the assay: surface plasmon resonance, immobilized detergent-purified protein. Type of assay: binding. The settings on record: 50 mM HEPES pH 8.0, 150 mM NaCl, 0.03% bDDM. Set-up: full-length; N-terminal FLAG and C-terminal His10 (or 3C-cleavable C-terminal His8) in Pichia pastoris KM71H, bDDM-purified for SPR; Xenopus oocytes from cRNA for citrate efflux. A general note: SPR reads the build-up and loss of mass on a sensor chip optically.

The target of assay [2] is T1, SbMATE. Nature of the assay: ethidium uptake into Pichia pastoris cells, flow cytometry of DNA-bound ethidium. Conditions: pH 8.5, 25 mM Tris-Cl, 137 mM NaCl, 2.7 mM KCl, outward proton gradient, 20 min, room temperature; read-out: half-maximal transport rate. In kind it is cell-based. Set-up: full-length; N-terminal FLAG and C-terminal His10 (or 3C-cleavable C-terminal His8) in Pichia pastoris KM71H. In general terms: A flow cytometer gives signals particle by particle.

Assay [3] concerns the target T2, SbMATE (Sorghum bicolor MATE transporter), detergent-purified (Sorghum bicolor, bDDM detergent-solubilised from Pichia pastoris; N-terminal FLAG and C-terminal His10 tags left out; covalently immobilised by EDC-NHS chemistry for SPR).
T2 chain: T1 sequence (A7XZS5 1-600)
Nature of the assay: SPR; BiOptix 404Pi, CMD sensorchip; detergent-purified SbMATE covalently immobilised (EDC-NHS, 5,000 RU); purified Nbs injected at various concentrations; running buffer 50 mM HEPES pH 8.0, 150 mM NaCl, 0.03% bDDM; double-referenced against a blank surface and buffer injections; regeneration 50 mM glycine pH 2.1. The settings on record: both partners purified.

In assay [4] the target is T2, SbMATE (Sorghum bicolor MATE …). Nature of the assay: SPR; as the other SPR (SbMATE covalently immobilised on CMD chip; 50 mM HEPES pH 8.0, 150 mM NaCl, 0.03% bDDM; Nbs injected at various concentrations) but a BSA-immobilised surface was the reference channel instead of a blank surface; n = 3. Conditions: both partners purified.

What is called Kd is the concentration at which binding is half-saturated. With ethidium bromide, the Kd at SbMATE [1] is 47.1 ± 15.6 µM. Besides, the Km at SbMATE [2] was determined as 130 ± 17.8 µM.

B1: Nb 83 (VHH)
VHH: EVQLVESGGGSVQAGGSLRLSCAVSGYTYCSYDMSWYRQAPGKEREFVSGIDSDGSTSYADSVKGRFTISQDNAKNTLYLQMNSLKPEDTAMYYCAVDSVWRLCSLDPADFGYWGQGTQVTVSS
notes: Selected by mRNA/cDNA display from a naive camelid single-domain library (Creative Biolabs); also called nanobody 83; source: E. coli BL21 (DE3) Star, purified (Ni-NTA, SEC)
On to B1, for which binding in assay [3] was put at a Kd of 3.3 µM.

B2: Nb 86 (VHH)
VHH: HVQLVESGGGSVQAGGSLRLTCAASGFTFSNYYMSWVRQAPGKGLEWVSSIYSVGSNGYYADSVKGRSTISRDNAKNTLYLQMNSLKPEDTAVYYCAAEPGGSWWDAYSYWGQGTQVTVSS
notes: Selected by mRNA/cDNA display from a naive camelid single-domain library (Creative Biolabs); also called nanobody 86; source: E. coli Shuffle T7, purified (Ni-NTA, SEC)
B2: binding in assay [4] was characterised by a dissociation constant (Kd) of 0.174 µM.

B3: Nb 80 (VHH)
VHH: QVQLVESGGGSVQAGGSLRLSCTYSVYTYSSDSMAWFRQAPGKEREGVAGIYIGSGSTLYADSAKGRLTISQDKAKNTVYLQMNSLKPEDTALYYCAAGGNWYDGVLNVERAFAYWGQGTQVTVSS
notes: Selected by mRNA/cDNA display from a naive camelid single-domain library (Creative Biolabs); also called nanobody 80; source: E. coli, purified (Ni-NTA, SEC)
The molecule B3 yielded a Kd in assay [3] of 12.2 µM.

B4: Nb 94 (VHH)
VHH: EVQLVESGGGLVQPGGSLRLSCAASGFTFSTYSMSWVRLAPGKALEWVSVINSGGDATYYADSVKGRFTISRDNAKNMLYLQMNSLKPVDTAMYYCVTGLYMSTGPVVAVPFGYWGQGTQVTVSS
notes: Selected by mRNA/cDNA display from a naive camelid single-domain library (Creative Biolabs); also called nanobody 94; source: E. coli BL21 (DE3) Star, purified (Ni-NTA, SEC)
In assay [4], B4 returned a Kd of 0.0995 µM.

B5: Nb 93 (VHH)
VHH: HVQLVESGGGLVQAGGFLRLSCTASGFTFDNLALAWFRQAPGKEREGVSCISWSGTRTYYADSVQGRFAISRDNAKNTLYLQMASLKPEDTAMYYCAAESSWVKTCPGDTTDWGSTYWGQGTQVTVSS
notes: Selected by mRNA/cDNA display from a naive camelid single-domain library (Creative Biolabs); also called nanobody 93; source: E. coli, purified (Ni-NTA, SEC)
As to B5, binding in assay [3] was characterised by a dissociation constant (Kd) of 26.1 µM.

B6: Nb 81 (VHH)
VHH: HVQLVESGGGSVQAGGSLRLSCAASGYSYCSYDMSWYRQAPGKEREFVATIDSYGDTSYADSVKGRFTISQDNAKNTLYLQMNSLKPEDTAMYYCATTPYGGWRYFGYWGQGTQVTVSS
notes: Selected by mRNA/cDNA display from a naive camelid single-domain library (Creative Biolabs); also called nanobody 81; source: E. coli, purified (Ni-NTA, SEC)
The molecule B6 returned a Kd in assay [3] of 23.9 µM.
